FireProtDB (doi:10.1021/bi982427c)

Details: Bos taurus; pH 5.3; 5 °C; GdnHCl; Fluorescence; Sodium acetate 0.02 M; reversible: yes; whole UniProt chain shown

B1: Acyl-CoA-binding protein wild type, P07107 (protein)
chain: MSQAEFDKAAEEVKHLKTKPADEEMLFIYSHYKQATVGDINTERPGMLDFKGKAKWDAWNELKGTSKEDAMKAYIDKVEELKKKYGI
Q: Which unfolding free energy does the source give for B1 here?
A: 7.89 kcal/mol
